In paper PMC5728393 (Nucleic Acids Research, 2017):

T1: PadR (Bacillus spizizenii, UniProt E0TW95)
T1 sequence (E0TW95 1-182): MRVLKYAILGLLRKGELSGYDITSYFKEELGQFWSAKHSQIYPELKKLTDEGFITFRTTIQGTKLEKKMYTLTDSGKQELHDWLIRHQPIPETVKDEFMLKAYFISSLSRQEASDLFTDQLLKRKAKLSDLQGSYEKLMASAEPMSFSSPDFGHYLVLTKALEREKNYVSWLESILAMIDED

T2: PadR WT (Bacillus subtilis, UniProt E0TW95 1-182)
T2 sequence: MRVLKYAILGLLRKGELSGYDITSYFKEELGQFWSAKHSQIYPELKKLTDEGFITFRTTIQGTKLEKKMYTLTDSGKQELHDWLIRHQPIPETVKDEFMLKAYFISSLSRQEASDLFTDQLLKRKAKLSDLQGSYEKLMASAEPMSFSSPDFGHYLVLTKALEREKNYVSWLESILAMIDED

B1: phenolic acid decarboxylase regulator (PadR) from Bacillus subtilis, wild type (natural protein, UniProt E0TW95 1-182, looked up)
chain: MRVLKYAILGLLRKGELSGYDITSYFKEELGQFWSAKHSQIYPELKKLTDEGFITFRTTIQGTKLEKKMYTLTDSGKQELHDWLIRHQPIPETVKDEFMLKAYFISSLSRQEASDLFTDQLLKRKAKLSDLQGSYEKLMASAEPMSFSSPDFGHYLVLTKALEREKNYVSWLESILAMIDED
B2: bridge operator (dsDNA)
DNA 1: AGTTACATGATTACCGGAACATGTAAAT
DNA 2: ATTTACATGTTCCGGTAATCATGTAACT
B3: operator C6A/C6'A (dsDNA)
DNA 1: CGGAAAATGTAAATAGTTACATTATTAC
DNA 2: GTAATAATGTAACTATTTACATTTTCCG
B4: operator G9T/G9'T (dsDNA)
DNA 1: CGGAACATTTAAATAGTTAAATGATTAC
DNA 2: GTAATCATTTAACTATTTAAATGTTCCG
B5: operator T8A/T8'A (dsDNA)
DNA 1: CGGAACAAGTAAATAGTTACTTGATTAC
DNA 2: GTAATCAAGTAACTATTTACTTGTTCCG
B6: operator C6G/C6'G (dsDNA)
DNA 1: CGGAAGATGTAAATAGTTACATCATTAC
DNA 2: GTAATGATGTAACTATTTACATCTTCCG
B7: operator T10A/T10'A (dsDNA)
DNA 1: CGGAACATGAAAATAGTTTCATGATTAC
DNA 2: GTAATCATGAAACTATTTTCATGTTCCG
B8: operator T17A/T17'A (dsDNA)
DNA 1: CGGAACATGTATATAGATACATGATTAC
DNA 2: GTAATCATGTATCTATATACATGTTCCG
B9: operator G9A/G9'A (dsDNA)
DNA 1: CGGAACATATAAATAGTTATATGATTAC
DNA 2: GTAATCATATAACTATTTATATGTTCCG
B10: operator C6T/C6'T (dsDNA)
DNA 1: CGGAATATGTAAATAGTTACATAATTAC
DNA 2: GTAATTATGTAACTATTTACATATTCCG
B11: operator T18C/T18'C (dsDNA)
DNA 1: CGGAACATGTGAATAGTCACATGATTAC
DNA 2: GTAATCATGTGACTATTCACATGTTCCG
B12: operator T18G/T18'G (dsDNA)
DNA 1: CGGAACATGTCAATAGTGACATGATTAC
DNA 2: GTAATCATGTCACTATTGACATGTTCCG

target: T1, PadR; test: isothermal titration calorimetry; format: binding; conditions: not given

**Q.** Which Kd does the source give for O=C(O)/C=C/c1ccc(O)cc1 [p-coumaric acid] here?
**A.** 6200 ± 100 nM

Target: the molecule itself
Test: SEC
Conditions: not given

**Q.** With B1 as the molecule, how does the “stoichiometry N” value read?
**A.** 2

target: T2, PadR WT; test: fluorescence polarization; conditions: not given

**Q.** How did the Kd turn out when B2 was run?
**A.** 8.9 ± 2.1 nM

**Q.** With B3 as the molecule, how does the Kd read?
**A.** 312 ± 45.5 nM

**Q.** Which Kd does the source give for B4 here?
**A.** 37.8 ± 6.7 nM

**Q.** For B5, which Kd is on record?
**A.** 41 ± 4 nM

**Q.** For B6, which Kd is on record?
**A.** 200 ± 21.7 nM

**Q.** B7 was tested. Which Kd did it give?
**A.** 11.6 ± 1.3 nM

**Q.** For B8, which Kd is on record?
**A.** 9.4 ± 1.4 nM

**Q.** B9 was tested. Which Kd did it give?
**A.** 15.7 ± 2.9 nM

**Q.** B10 was tested. Which Kd did it give?
**A.** 160 ± 6.9 nM

**Q.** Which Kd does the source give for B11 here?
**A.** 20.8 ± 1.9 nM

**Q.** With B12 as the molecule, how does the Kd read?
**A.** 9.9 ± 1.7 nM

target: T1, PadR; test: X-ray crystal structure of the complex; format: binding; conditions: 10 mM ferulic acid soak, 22% PEG 3350, 0.1 M sodium acetate pH 4.0; interdomain pocket

**Q.** For COc1cc(/C=C/C(=O)O)ccc1O [ferulic acid], which “X-ray crystal structure of the complex (soaked crystals)” value is on record?
**A.** we also determined a PadR structure in complex with ferulic acid (PadR3FA)
